The values that follow come from patent US10273305B2, “Bispecific CXCR4-CD4 polypeptides with potent anti-HIV activity” (Ablynx N.V., priority 2015, dated 2019).

The term IC50 denotes the concentration that gives 50% inhibition. A high value points to a need for much substance. As usually defined, the IC90 is the concentration at which the effect reaches the 90% level. High values mean weaker potency, low ones greater potency.

Test [1] deals with HIV-1 CI#17 clinical isolate (clade B). Description: HIV-1 CI#17 infection of PBMCs, p24. Format: cell-based. The following applies: PBMC, average 2 donors.
In test [2] the target is CXCR4 (Homo sapiens, UniProt P61073). Nature of the test: [125I]-CXCL12 radio-ligand displacement on membranes of HEK293 cells transfected with CXCR4. The format is binding. The following applies: 75 pM [125I]-CXCL12. As for the experimental part: To this end, CXCR4 Nanobodies were analysed for their binding to HEK293T-CXCR4 cells, and their ability to compete with the ligand CXCL12 (or SDF-1a) for receptor binding in a radio-ligand displacement assay. The sequences of the respective CXCR4 Nanobodies are depicted in Table 3.1A.
CXCR4, sequence (P61073 whole entry): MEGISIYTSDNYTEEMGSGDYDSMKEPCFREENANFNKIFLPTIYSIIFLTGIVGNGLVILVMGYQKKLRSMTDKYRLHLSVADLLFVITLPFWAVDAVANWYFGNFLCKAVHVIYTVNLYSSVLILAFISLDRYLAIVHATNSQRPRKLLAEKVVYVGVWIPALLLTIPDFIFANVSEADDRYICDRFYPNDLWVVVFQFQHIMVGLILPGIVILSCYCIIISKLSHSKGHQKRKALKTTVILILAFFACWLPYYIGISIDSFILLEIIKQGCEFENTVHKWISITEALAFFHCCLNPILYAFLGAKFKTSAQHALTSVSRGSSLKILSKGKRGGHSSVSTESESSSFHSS
Non-specific binding was determined in presence of 100 nM cold SDF-1. The assay was performed three times, and average percentages of SDF-1 inhibition and Ki values were calculated (Table 3.1B).

For test [3], the system named is CXCR4-using (X4) HIV-1 clone NL4.3. Description: microbe, parasite or virus in culture. Conditions: Example 10. Format: cell-based.

B1: 283F1: anti-CXCR4 Nanobody, SEQ ID NO: 12 (protein)
VHH: EVQLVESGGGLVQAGGSLRLSCVASVNIFGSIAMAWYRQAPGKQRNLVASISSGGRINYADSRKGRFTISRDNTKNTVHLQMNSLEPEDTAVYYCAAGRIGQRTLTFTPDYWGQGTQVTVSS
modifications: Nanobody Sequence
In test [1], B1 registered an IC50 of 2 nM and an IC90 of 9.1 nM. Moreover, the “[125I] SDF-1 displacement on CXCR4-Hek pKi +/SEM (n = 3)” value in test [2] was 7.93 +/− 0.41.

B2: 281E10: anti-CXCR4 Nanobody, SEQ ID NO: 6 (protein)
VHH: EVQLVESGGGLVQAGGSLRLSCKASGGTFNNYAMGWFRRAPGKEREFVAAITRSGVRSGVSAIYGDSVKDRFTISRDNVKNTLYLQMNTLKPEDTAVYTCAASAIGSGALRRFEYDYSGQGTQVTVSS
modifications: Nanobody Sequence
As to B2, in test [1], it took 1.3 nM to reach half-maximal inhibition (IC50) and the IC90 was found to be 8.1 nM. Besides, the “[125I] SDF-1 displacement on CXCR4-Hek pKi +/SEM (n = 3)” value in test [2] is given as 9.21 +/− 0.12.

B3: 281D4: anti-CXCR4 Nanobody, SEQ ID NO: 7 (protein)
VHH: EVQLVESGGGLVQAGGSLRLSCAASGGTFNNYAMGWFRRAPGKEREFVAAISRSGVRTGVSALYGDSVKDRFTISRDNAKNTLYLQMNKMKPEDTAVYTCAASAIGSGALRRFEYDSSGQGTQVTVSS
modifications: Nanobody Sequence
For the molecule B3, in test [1], the 50% inhibitory concentration (IC50) was determined as 15 nM and the IC90 was 33 nM. Besides, the “[125I] SDF-1 displacement on CXCR4-Hek pKi +/SEM (n = 3)” value in test [2] is on record as 8.27 +/− 0.05.

B4: 281A5: anti-CXCR4 Nanobody, SEQ ID NO: 5 (protein)
VHH: EVQLVESGGGLVQAGGSLRLSCAASGRTFNNYAMGWFRRAPGKEREFVAAITRSGVRSGVSAIYGDSVKDRFTISRDNAKNTLYLQMNSLKPEDTAVYTCAASAIGSGALRRFEYDYSGQGTQVTVSS
modifications: Nanobody Sequence
In test [1], B4 returned an IC50 of 12 nM and an IC90 greater than 57 nM. Besides, the “[125I] SDF-1 displacement on CXCR4-Hek pKi +/SEM (n = 3)” value in test [2] is on record as 8.12 +/− 0.08.

B5: 281A6: anti-CXCR4 Nanobody, SEQ ID NO: 8 (protein)
VHH: EVQLVESGGGLVQTGGSLRLSCAASGGTFNNYAMGWFRRAPGKEREFVAAISRSGVRTGVSALYGDSVKDRFTISRDNAKNTLYLQMNKMKPEDTAVYTCAASAIGSGALRRFEYDSSGQGTQVTVSS
modifications: Nanobody Sequence
As to B5, in test [1], the IC50 stood at 20 nM and the IC90 came out at 61 nM. Besides, the “[125I] SDF-1 displacement on CXCR4-Hek pKi +/SEM (n = 3)” value in test [2] was 8.63 +/− 0.02.

B6: 15A1: anti-CXCR4 Nanobody, SEQ ID NO: 15 (protein)
VHH: EVQLVESGGGLVQAGGSLRLSCAASGRTFSRAAMGWFRQAPGKEREFVGCALSSAGSALTADSVKGRFTISRDNAKNMVYLQMNNLKPEDTAVYSCVAGGYCTRAGVYPYWGQGTQVTVSS
modifications: Nanobody Sequence
For the molecule B6, the “IC50 HIV1 neutralisation NL4.3 in MT-4 cells, panel of CXCR4 Nanobodies” value in test [3] was “sub-nanoMolar range”.

B7: 283B6: anti-CXCR4 Nanobody, SEQ ID NO: 10 (protein)
VHH: EVQLVASGGGLVQAGGSLRLSCAVSGTTFSVATLGWYRQAPGQQRALVADISSGGSTNYADSVRGRFTISRDNAKNLAYLQMNSLKPEDTAVYYCNARTSGWRTRSNYWGQGTQVTVSS
modifications: Nanobody Sequence
In test [1], B7 came in with an IC50 of 2.8 nM and an IC90 of 9.9 nM. Also, the “[125I] SDF-1 displacement on CXCR4-Hek pKi +/SEM (n = 3)” value in test [2] is 8.78 +/− 0.24.

B8: 283E2: anti-CXCR4 Nanobody, SEQ ID NO: 11 (protein)
VHH: EVQLVESGGGLVQAGGSLRLSCAVSGTTFSVATLGWYRQAPGQQRALVADISSGGSTNYADSVRGRFTISRDNAKNLAYLQMNSLKPEDTAVYYCNARTSGWRTRSNYWGQGTQVTVSS
modifications: Nanobody Sequence
Molecule B8 displayed an IC50 in test [1] of 3.7 nM. Moreover, the “[125I] SDF-1 displacement on CXCR4-Hek pKi +/SEM (n = 3)” value in test [2] is on record as 8.29 +/− 0.11.
